# Numbered stars: 1 amine (or outer) side, 2 acyl side, 3 side chain; on linkers, the order of the positions; unused ones are H or OH. Bridge positions count the residues as written; N and C are the ends. Square brackets hold non-standard residues; d marks the D form. Peptide text beside a SMILES is read from it. * marks the point of attachment. X1 = COc1cc2cc(c1Cl)N(C)C(=O)C[C@H](OC(=O)[C@H](C)N(C)C(=O)CCSSC(C)CCC(=O)*)[C@]1(C)O[C@H]1[C@H](C)[C@@H]1C[C@@](O)(NC(=O)O1)[C@H](OC)/C=C/C=C(\C)C2; 1Nal = N[C@@H](Cc1cccc2ccccc12)C(=O)O; TBMB = c1c(C[*:1])cc(C[*:3])cc1C[*:2]; Tle = CC(C)(C)[C@H](N)C(=O)O; βAla = NCCC(=O)O; Sar = CNCC(=O)O
# Legend:
# [1] = Monkey GLP study toxicokinetics; type: in vivo; conditions: plasma, Day 1 male; for clearance / half-life / Cmax / Vd: Cynomolgus; for Cmax: read-out: C0/Cmax; for Vd: read-out: Vdss
# From the text: (§1) In a repeat dose experiment with BT1718 no significant gender-related differences in the TK parameters for the rat or monkey were noted. Exposure in both the rat and monkey increased approximately linearly with dose and was maintained for 28 days on repeat dosing. […] Plasma clearance and volume of distribution were similar across BT1718 dose and consistent with the PK studies.
# [2] = test system: NCI-H292; experiment: In vitro cytotoxicity (CellTiter-Glo) NCI-H292; type: cell-based; conditions: NCI-H292, NSCLC
# From the text: (§2) Table 1 and Table 2 Notes: in general regression and stable disease correlated with the in vitro cytotoxicity and MT1-MMP expression. Female BALB/c mice n=3/group animals dosed twice per week except EBC-1 three per week. Tumor growth inhibition (TGI) (%)=[1−(Ti−T0)/(Vi−V0)]×100; Ti is the average tumor volume of a treatment group on a given day, TO is the average tumor volume of the treatment group on the day of treatment start, Vi is the average tumor volume of vehicle control group on the same day with Ti, and V0 is the average tumor volume of vehicle group on the day of treatment start. A one-way ANOVA was performed to compare tumor volume among groups, and when a significant F-statistics (a ratio of treatment variance to the error variance) was obtained, comparisons between groups were carried out with Games-Howell test. All data were analyzed using GraphPad Prism.* p<0.05, ** p<0.01, *** p<0.001. In vitro cytotoxicity was measured by CellTiter-Glo®, MT1-MMP membrane H score from immunohistochemistry staining, NM not measured. Tumor size on Day 1 of dosing.
# [3] = test system: HCC-1806; experiment: In vitro cytotoxicity (CellTiter-Glo) HCC-1806; type: cell-based; conditions: HCC-1806, Breast
# From the text: as §2
# [4] = Sprague Dawley rat PK study; type: in vivo; conditions: plasma, 15 mg/m2, male, 15 mg/m^2 IV
# [5] = Plasma protein binding, monkey; type: in vitro ADME; conditions: read-out: free fraction
# Protocol: Plasma protein binding of BT1718 was also assessed. The mean plasma protein binding of the BT1718 peptide ranged from 87% to 98%, with the free fraction of BT1718 being 13% in human, 2.6% in rats, 7.5% in mice, 3.8% in monkey and 1.5% in dog plasma, the results had no correlation to the plasma and whole blood stability data. […] Plasma protein binding of unconjugated DM1, has previously been reported, with the unbound fraction being 7% in human and monkey and 3% in rat.
# [6] = Non-GLP toxicity studies, dog; type: in vivo
# From the text: (§4) These include in vitro tissue microarray in human, rat and monkey tissues and in vitro and in vivo assessment of immunogenicity. In vivo assessments include single dose toxicity in mice and rats, multiple dose range finding studies in mice, rats, dogs and monkeys (non-GLP) and GLP-compliant multiple dose studies in rats and monkeys consisting of 28-day on study phase with a 28-day recovery period.
# [7] = Repeat dose toxicokinetics, rat and monkey; type: in vivo; conditions: both sexes, plasma, intravenous, rat or monkey, irrespective of dose, read-out: Plasma t1/2
# From the text: as §1
# [8] = Stability in whole blood in vitro, mouse; type: in vitro ADME; conditions: 37° C.
# Protocol: (§3) The stability of BT1718 was assessed in plasma and whole blood from humans, monkey, dog, mouse and rat. […] The mechanism for the difference in stability of the BT1718 peptide in whole blood between the different species is unknown.
# [9] = Stability in plasma in vitro, monkey; type: in vitro ADME; conditions: 37° C.
# Protocol: as §3
# [10] = Non-GLP toxicity studies, mouse; type: in vivo
# From the text: as §4
# [11] = test system: SNU-16; experiment: In vitro cytotoxicity (CellTiter-Glo) SNU-16; type: cell-based; conditions: SNU-16, Gastric
# From the text: as §2
# [12] = PK samples in EBC-1 xenograft study; conditions: female, BALB/c, mouse, plasma, iv
# [13] = Stability in whole blood in vitro, rat; type: in vitro ADME; conditions: 37° C.
# Protocol: as §3
# [14] = Stability in plasma in vitro, mouse; type: in vitro ADME; conditions: 37° C.
# Protocol: as §3
# [15] = Non-GLP toxicity studies, monkey; type: in vivo, monkeys
# From the text: as §4
# [16] = Intrinsic clearance in cryopreserved hepatocytes; type: in vitro ADME
# Protocol: Accumulation of the majority of the radioactivity was found in the kidney and bladder irrespective of the labelled peptide dose; this is indicative of either non-saturable excretion or proteolysis followed by excretion through the kidneys. Furthermore, the intrinsic clearance of BT1718 and its Bicycle component, N241 was low when measured in cryopreserved hepatocytes. […] Unconjugated DM1, when radiolabelled, (as [[^3H]-DM1 (91 μCi/kg, 200 μg/kg, IV), was reported to distribute rapidly and extensively to the lungs, liver, kidney, spleen, heart, gastrointestinal tract, and adrenal glands in the rat. The major route of excretion of DM1 was through the bile/faeces, with a minimal amount excreted in the urine, a completely different distribution to BT1718 and its metabolites with little and short lived accumulation seen in other organs such as heart, liver, GI and lungs which would imply that these organs maybe spared systemic toxicity.
# [17] = Stability in whole blood in vitro, monkey; type: in vitro ADME; conditions: 37° C.
# Protocol: as §3
# [18] = BALB/c mouse PK study; conditions: female; for Cmax: BALB/c mouse, 15 mg/m^2 (5 mg/kg) IV
# [19] = 2.4 mg/m2, Monkeys GLP, 2.4 mg/m^2 IV
# [20] = 6 mg/m2, Monkeys GLP, 6 mg/m^2 IV
# [21] = 12 mg/m2, Monkeys GLP, 12 mg/m^2 IV
# [22] = 18 mg/m2, Monkeys GLP, 18 mg/m^2 IV
# [23] = dogs 1 mg/kg, 20 mg/m^2 twice weekly
# [24] = BALB/c, mouse, plasma, iv, 15 mg/m2
structure (smiles),measurement,setting,value
COc1cc2cc(c1Cl)N(C)C(=O)C[C@H](OC(=O)[C@H](C)N(C)C(=O)CCSSC(C)CCC(=O)NCCC(=O)N(C)CC(=O)N(C)CC(=O)N(C)CC(=O)N(C)CC(=O)N(C)CC(=O)N(C)CC(=O)N(C)CC(=O)N(C)CC(=O)N(C)CC(=O)N(C)CC(=O)N[C@@H](C)C(=O)N[C@H]1CSCc3cc4cc(c3)CSC[C@H](NC(=O)[C@@H](C)NC(=O)[C@H](Cc3cccc5ccccc35)NC(=O)[C@H](CCC(=O)O)NC(=O)[C@H](CC(N)=O)NC(=O)[C@@H](C)NC1=O)C(=O)N[C@@H](CCC(=O)O)C(=O)N[C@@H](CC(=O)O)C(=O)N[C@@H](Cc1ccccc1)C(=O)N[C@@H](Cc1ccc(O)cc1)C(=O)N[C@@H](CC(=O)O)C(=O)N[C@@H](C(C)(C)C)C(=O)N[C@H](C(N)=O)CSC4)[C@]1(C)O[C@H]1[C@H](C)[C@@H]1C[C@@](O)(NC(=O)O1)[C@H](OC)/C=C/C=C(\C)C2 (stereo partly drawn) [BT1718] ({X1-βAla}-[Sar][Sar][Sar][Sar][Sar][Sar][Sar][Sar][Sar][Sar]AC[dA]NE[1Nal][dA]CEDFYD[Tle]C-NH2; linker 12-18-25 via TBMB (inferred)),clearance,[1]; [19],13.4 ± 4.7 mL/min/kg
same,half-life,[1]; [19],12.6 min
same,Cmax,[1]; [19],200 ± 40 nM
same,Vd,[1]; [19],0.24 ± 0.05 L/kg
same,clearance,[1]; [20],8.8 ± 0.8 mL/min/kg
same,half-life,[1]; [20],13.8 min
same,Cmax,[1]; [20],670 ± 40 nM
same,Vd,[1]; [20],0.17 ± 0.02 L/kg
same,clearance,[1]; [21],8.2 ± 0.6 mL/min/kg
same,half-life,[1]; [21],21.6 min
same,Cmax,[1]; [21],1210 ± 90 nM
same,Vd,[1]; [21],0.21 ± 0.01 L/kg
same,clearance,[1]; [22],6.7 mL/min/kg
same,half-life,[1]; [22],22.8 min
same,Cmax,[1]; [22],2530 nM
same,Vd,[1]; [22],0.16 L/kg
same,AUC,[1]; [19],0.08 ± 0.02 µM·h
same,AUC,[1]; [20],0.28 ± 0.03 µM·h
same,AUC,[1]; [21],0.59 ± 0.14 µM·h
same,AUC,[1]; [22],1.09 µM·h
same,IC50,[2],11.6 nM
same,IC50,[3],1.4 nM
same,AUC,[4],1.5 ± 0.2 µM·h
same,clearance,[4],9.4 ± 1.1 mL/min/kg
same,half-life,[4],33.6 ± 6.6 min
same,Cmax,[4]; read-out: C0/Cmax,4200 ± 1100 nM
same,Vd,[4]; read-out: Vdss,0.29 ± 0.03 L/kg
same,fraction unbound,[5],0.038
same,GI findings,[6]; dog 1 mg/kg (20 mg/m^2) twice weekly,Slight to moderate small intestinal degeneration
same,bladder findings,"[6]; dog, 14 mg/m^2 twice weekly",Bladder epithelial degeneration
same,hepatic findings,[6]; [23],Elevated liver enzymes
same,peripheral haematology,[6]; [23],significant decreases in WBCs
same,renal findings,[6]; [23],Moderate renal tubule degeneration and epithelial mitosis
same,half-life,[7],12 to 33.6 min
same,half-life,[8],> 1440 min
same,half-life,[9],> 300 min
same,GI findings,"[10]; mice, single dose of 13.4 mg/kg (40.2 mg/m^2)",intestinal mucosal mitosis
same,renal findings,"[10]; mouse 3.3 mg/kg, 10 mg/m^2 three times weekly",Moderate renal tubule degeneration and epithelial mitosis
same,IC50,[11],19.5 nM
same,Cmax,[12]; 3 mg/kg,1500 ± 900 nM
same,Cmax,[12]; 10 mg/kg,7600 ± 600 nM
same,half-life,[13],> 1440 min
same,half-life,[14],> 300 min
same,peripheral haematology,"[15]; monkeys 2 mg/kg, 24 mg/m^2 once weekly",significant decreases in WBCs
same,GI findings,"[15]; monkeys, single 3 mg/kg (36 mg/m^2) one week post 1.5 mg/kg dose",mild single cell necrosis of the glandular epithelial cells in the caecum
same,intrinsic clearance,[16],low
same,half-life,[17],120 to 240 min
same,AUC,"[18]; BALB/c, mouse, plasma, intravenous, 5 mg/kg",~2.5 µM·h
same,Cmax,"[18]; BALB/c, mouse, plasma, iv, 5 mg/kg, C0/Cmax",8000 nM
same,AUC,[18]; [24],2.3 ± 0.2 µM·h
same,Vd,[18]; [24],0.23 ± 0.09 L/kg
same,clearance,[18]; [24],7.5 ± 0.6 mL/min/kg
same,half-life,[18]; [24],33.6 ± 10.8 min
same,Cmax,[18]; read-out: C0/Cmax,7200 ± 410 nM

# Source: patent US20200129630A1, “METHODS FOR TREATING CANCER” (BicycleRD Limited, priority 2018, published 2020)
